Laboratory results from patent publication US20150344570A1 (published 2015).

B1: GpH7-A5/GpH7-B3 variant N325_04F/GpL16-k0 (antibody, human IgG1, kappa)
heavy 1: not shown
heavy 2: not shown
light: DIVMTQSPLSLPVTPGEPASISCQASESLVHSNRNTYLHWYLQKPGQSPQLLIYKVSNRFSGVPDRFSGSGSGTDFTLKISRVEAEDVGVYYCSQNTHVPPTFGQGTKVEIERTVAAPSVFIFPPSDEQLKSGTASVVCLLNNFYPREAKVQWKVDNALQSGNSQESVTEQDSKDSTYSLSSTLTLSKADYEKHKVYACEVTHQGLSSPVTKSFNRGEC
notes: Heterodimerized anti-glypican-3 IgG1; mutation in one H chain only; also called He Ab
B2: GpH7-A5/GpH7-B3 variant N325_08L/GpL16-k0 (antibody, human IgG1, kappa)
heavy 1: not shown
heavy 2: not shown
light: B1 light
notes: as for B1
B3: GpH7-A5/GpH7-B3 variant N325_10E/GpL16-k0 (antibody, human IgG1, kappa)
heavy 1: not shown
heavy 2: not shown
light: B1 light
notes: as for B1
B4: GpH7-A5/GpH7-B3 variant N325_05P/GpL16-k0 (antibody, human IgG1, kappa)
heavy 1: not shown
heavy 2: not shown
light: B1 light
notes: as for B1
B5: GpH7-A5/GpH7-B3 variant N325_07I/GpL16-k0 (antibody, human IgG1, kappa)
heavy 1: not shown
heavy 2: not shown
light: B1 light
notes: as for B1
B6: GpH7-A5/GpH7-B3 variant N325_09D/GpL16-k0 (antibody, human IgG1, kappa)
heavy 1: not shown
heavy 2: not shown
light: B1 light
notes: as for B1
B7: GpH7-A5/GpH7-B3 variant N325_06M/GpL16-k0 (antibody, human IgG1, kappa)
heavy 1: not shown
heavy 2: not shown
light: B1 light
notes: as for B1
B8: GpH7-B3 variant T335_02A/GpL16-k0 (homodimerized antibody, Ho Ab) (antibody, human IgG1, kappa)
heavy: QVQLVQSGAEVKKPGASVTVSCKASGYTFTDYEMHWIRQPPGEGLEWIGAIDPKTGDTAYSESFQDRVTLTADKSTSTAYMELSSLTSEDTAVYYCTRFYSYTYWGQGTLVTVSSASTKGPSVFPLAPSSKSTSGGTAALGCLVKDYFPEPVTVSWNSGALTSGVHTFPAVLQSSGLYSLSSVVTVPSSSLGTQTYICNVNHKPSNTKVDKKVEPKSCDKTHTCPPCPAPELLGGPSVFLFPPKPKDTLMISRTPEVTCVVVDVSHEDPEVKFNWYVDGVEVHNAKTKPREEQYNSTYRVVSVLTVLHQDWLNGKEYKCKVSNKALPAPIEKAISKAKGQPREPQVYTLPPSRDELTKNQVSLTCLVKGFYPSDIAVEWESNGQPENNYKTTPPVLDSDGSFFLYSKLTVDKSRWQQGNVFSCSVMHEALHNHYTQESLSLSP
light: B1 light
notes: Anti-glypican-3 IgG1 (G1d with K439E); the alteration stands in both H chains; also called T335_02A Ho Ab; T335A in both H chains
B9: GpH7-A5/GpH7-B3 variant T335_02A/GpL16-k0 (heterodimerized antibody, He Ab) (antibody, human IgG1, kappa)
heavy 1: not shown
heavy 2: not shown
light: B1 light
notes: Anti-glypican-3 IgG1 heterodimer (D356K/H435R chain GpH7-A5 with K439E chain GpH7-B3 variant); the alteration stands in one H chain only; EU numbering; also called T335_02A He Ab; T335A in one H chain
B10: GpH7-B3 variant Y300_07I/GpL16-k0 (homodimerized antibody, Ho Ab) (antibody, human IgG1, kappa)
heavy: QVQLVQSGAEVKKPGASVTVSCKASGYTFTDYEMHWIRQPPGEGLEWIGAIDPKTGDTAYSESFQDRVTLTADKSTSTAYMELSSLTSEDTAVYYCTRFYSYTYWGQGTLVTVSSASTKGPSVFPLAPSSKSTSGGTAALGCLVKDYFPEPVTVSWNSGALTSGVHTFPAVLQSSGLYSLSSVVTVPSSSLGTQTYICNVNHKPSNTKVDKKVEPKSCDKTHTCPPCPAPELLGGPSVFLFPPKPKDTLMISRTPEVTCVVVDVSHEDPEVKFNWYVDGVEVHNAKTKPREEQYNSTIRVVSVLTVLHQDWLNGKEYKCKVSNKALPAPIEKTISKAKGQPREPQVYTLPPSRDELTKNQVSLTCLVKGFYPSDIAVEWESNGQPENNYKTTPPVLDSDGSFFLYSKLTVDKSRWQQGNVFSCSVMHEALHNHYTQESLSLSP
light: B1 light
notes: Anti-glypican-3 IgG1 (G1d with K439E); the alteration stands in both H chains; EU numbering; also called Y300_07I Ho Ab; Y300I in both H chains
B11: GpH7-A5/GpH7-B3 variant T335_09D/GpL16-k0 (heterodimerized antibody, He Ab) (antibody, human IgG1, kappa)
heavy 1: not shown
heavy 2: not shown
light: B1 light
notes: Anti-glypican-3 IgG1 heterodimer; the alteration stands in one H chain only; EU numbering; also called T335_09D He Ab; T335D in one H chain
B12: GpH7-A5/GpH7-B3 variant Y300_06M/GpL16-k0 (heterodimerized antibody, He Ab) (antibody, human IgG1, kappa)
heavy 1: not shown
heavy 2: not shown
light: B1 light
notes: Anti-glypican-3 IgG1 heterodimer; the alteration stands in one H chain only; EU numbering; also called Y300_06M He Ab; Y300M in one H chain
B13: GpH7-B3 variant T335_09D/GpL16-k0 (homodimerized antibody, Ho Ab) (antibody, human IgG1, kappa)
heavy: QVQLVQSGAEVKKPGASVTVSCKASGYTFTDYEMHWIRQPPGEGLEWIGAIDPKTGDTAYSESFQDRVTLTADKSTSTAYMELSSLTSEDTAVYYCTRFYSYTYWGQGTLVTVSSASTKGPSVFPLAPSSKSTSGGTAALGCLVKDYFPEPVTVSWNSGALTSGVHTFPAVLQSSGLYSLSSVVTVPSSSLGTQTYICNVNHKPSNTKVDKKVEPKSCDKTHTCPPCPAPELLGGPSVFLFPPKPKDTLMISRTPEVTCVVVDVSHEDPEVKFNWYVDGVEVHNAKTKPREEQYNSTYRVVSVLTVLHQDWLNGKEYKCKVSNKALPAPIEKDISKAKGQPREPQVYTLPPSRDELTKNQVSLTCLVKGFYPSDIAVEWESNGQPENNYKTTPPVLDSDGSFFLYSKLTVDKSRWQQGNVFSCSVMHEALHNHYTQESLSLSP
light: B1 light
notes: Anti-glypican-3 IgG1 (G1d with K439E); the alteration stands in both H chains; EU numbering; also called T335_09D Ho Ab; T335D in both H chains
B14: GpH7-B3 variant Y300_08L/GpL16-k0 (homodimerized antibody, Ho Ab) (antibody, human IgG1, kappa)
heavy: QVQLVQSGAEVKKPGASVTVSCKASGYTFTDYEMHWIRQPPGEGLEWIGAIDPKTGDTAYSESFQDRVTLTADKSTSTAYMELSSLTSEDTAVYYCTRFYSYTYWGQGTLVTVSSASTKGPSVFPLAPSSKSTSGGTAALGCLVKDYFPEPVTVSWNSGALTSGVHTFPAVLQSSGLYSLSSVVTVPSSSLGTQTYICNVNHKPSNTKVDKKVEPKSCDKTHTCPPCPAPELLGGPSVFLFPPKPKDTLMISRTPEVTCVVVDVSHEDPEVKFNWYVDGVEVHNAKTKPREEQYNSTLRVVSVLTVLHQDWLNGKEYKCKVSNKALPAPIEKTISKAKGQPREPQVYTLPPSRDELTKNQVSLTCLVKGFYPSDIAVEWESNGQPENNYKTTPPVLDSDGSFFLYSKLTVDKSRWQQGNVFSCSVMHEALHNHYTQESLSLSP
light: B1 light
notes: Anti-glypican-3 IgG1 (G1d with K439E); the alteration stands in both H chains; EU numbering; also called Y300_08L Ho Ab; Y300L in both H chains
B15: GpH7-A5/GpH7-B3 variant Y300_07I/GpL16-k0 (heterodimerized antibody, He Ab) (antibody, human IgG1, kappa)
heavy 1: not shown
heavy 2: not shown
light: B1 light
notes: Anti-glypican-3 IgG1 heterodimer; the alteration stands in one H chain only; EU numbering; also called Y300_07I He Ab; Y300I in one H chain
B16: GpH7-B3 variant T335_08L/GpL16-k0 (homodimerized antibody, Ho Ab) (antibody, human IgG1, kappa)
heavy: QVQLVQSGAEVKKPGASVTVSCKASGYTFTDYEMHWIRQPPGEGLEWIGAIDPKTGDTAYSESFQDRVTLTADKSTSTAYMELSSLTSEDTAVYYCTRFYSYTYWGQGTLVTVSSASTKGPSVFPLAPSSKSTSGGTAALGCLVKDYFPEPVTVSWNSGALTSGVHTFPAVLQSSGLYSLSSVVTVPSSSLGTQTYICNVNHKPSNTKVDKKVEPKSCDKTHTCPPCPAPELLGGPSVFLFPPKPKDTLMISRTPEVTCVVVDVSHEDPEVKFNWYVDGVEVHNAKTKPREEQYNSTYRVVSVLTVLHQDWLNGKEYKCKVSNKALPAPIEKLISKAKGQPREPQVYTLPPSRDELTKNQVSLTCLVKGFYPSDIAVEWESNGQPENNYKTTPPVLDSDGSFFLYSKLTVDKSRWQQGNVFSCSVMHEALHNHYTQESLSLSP
light: B1 light
notes: Anti-glypican-3 IgG1 (G1d with K439E); the alteration stands in both H chains; EU numbering; also called T335_08L Ho Ab; T335L in both H chains
B17: GpH7-A5/GpH7-B3 variant T335_04F/GpL16-k0 (heterodimerized antibody, He Ab) (antibody, human IgG1, kappa)
heavy 1: not shown
heavy 2: not shown
light: B1 light
notes: Anti-glypican-3 IgG1 heterodimer; the alteration stands in one H chain only; EU numbering; also called T335_04F He Ab; T335F in one H chain
B18: GpH7-A5/GpH7-B3 variant T335_08L/GpL16-k0 (heterodimerized antibody, He Ab) (antibody, human IgG1, kappa)
heavy 1: not shown
heavy 2: not shown
light: B1 light
notes: Anti-glypican-3 IgG1 heterodimer; the alteration stands in one H chain only; EU numbering; also called T335_08L He Ab; T335L in one H chain
B19: GpH7-A5/GpH7-B3 variant Y300_08L/GpL16-k0 (heterodimerized antibody, He Ab) (antibody, human IgG1, kappa)
heavy 1: not shown
heavy 2: not shown
light: B1 light
notes: Anti-glypican-3 IgG1 heterodimer; the alteration stands in one H chain only; EU numbering; also called Y300_08L He Ab; Y300L in one H chain
B20: GpH7-A5/GpH7-B3 variant T335_06M/GpL16-k0 (heterodimerized antibody, He Ab) (antibody, human IgG1, kappa)
heavy 1: not shown
heavy 2: not shown
light: B1 light
notes: Anti-glypican-3 IgG1 heterodimer; the alteration stands in one H chain only; EU numbering; also called T335_06M He Ab; T335M in one H chain
B21: GpH7-B3 variant T335_06M/GpL16-k0 (homodimerized antibody, Ho Ab) (antibody, human IgG1, kappa)
heavy: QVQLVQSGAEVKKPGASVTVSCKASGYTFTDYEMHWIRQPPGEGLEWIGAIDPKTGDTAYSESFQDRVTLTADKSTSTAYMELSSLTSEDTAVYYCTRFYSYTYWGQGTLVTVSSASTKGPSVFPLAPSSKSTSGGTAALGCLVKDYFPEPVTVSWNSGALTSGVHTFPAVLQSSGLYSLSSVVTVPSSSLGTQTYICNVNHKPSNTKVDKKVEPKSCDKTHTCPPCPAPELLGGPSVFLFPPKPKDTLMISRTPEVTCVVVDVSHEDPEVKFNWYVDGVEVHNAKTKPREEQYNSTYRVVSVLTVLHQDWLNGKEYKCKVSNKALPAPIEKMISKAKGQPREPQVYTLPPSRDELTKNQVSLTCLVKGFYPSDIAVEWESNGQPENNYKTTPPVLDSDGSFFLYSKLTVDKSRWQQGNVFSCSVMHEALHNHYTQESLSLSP
light: B1 light
notes: Anti-glypican-3 IgG1 (G1d with K439E); the alteration stands in both H chains; EU numbering; also called T335_06M Ho Ab; T335M in both H chains
B22: GpH7-B3 variant Y300_06M/GpL16-k0 (homodimerized antibody, Ho Ab) (antibody, human IgG1, kappa)
heavy: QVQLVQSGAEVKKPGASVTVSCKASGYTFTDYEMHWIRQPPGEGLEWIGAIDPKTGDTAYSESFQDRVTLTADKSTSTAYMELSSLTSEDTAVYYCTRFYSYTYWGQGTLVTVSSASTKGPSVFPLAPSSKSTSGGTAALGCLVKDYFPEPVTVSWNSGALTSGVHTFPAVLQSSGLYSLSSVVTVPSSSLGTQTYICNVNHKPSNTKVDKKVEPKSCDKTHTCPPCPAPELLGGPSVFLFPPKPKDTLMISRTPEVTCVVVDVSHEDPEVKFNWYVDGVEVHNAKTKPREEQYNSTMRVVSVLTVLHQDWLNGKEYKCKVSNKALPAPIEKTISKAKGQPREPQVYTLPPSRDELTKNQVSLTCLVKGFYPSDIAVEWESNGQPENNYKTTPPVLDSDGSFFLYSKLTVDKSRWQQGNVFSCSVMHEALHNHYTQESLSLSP
light: B1 light
notes: Anti-glypican-3 IgG1 (G1d with K439E); the alteration stands in both H chains; EU numbering; also called Y300_06M Ho Ab; Y300M in both H chains
B23: GpH7-A5/GpH7-B3 variant T335_05P/GpL16-k0 (heterodimerized antibody, He Ab) (antibody, human IgG1, kappa)
heavy 1: not shown
heavy 2: not shown
light: B1 light
notes: Anti-glypican-3 IgG1 heterodimer; the alteration stands in one H chain only; EU numbering; also called T335_05P He Ab; T335P in one H chain
B24: GpH7-B3 variant T335_04F/GpL16-k0 (homodimerized antibody, Ho Ab) (antibody, human IgG1, kappa)
heavy: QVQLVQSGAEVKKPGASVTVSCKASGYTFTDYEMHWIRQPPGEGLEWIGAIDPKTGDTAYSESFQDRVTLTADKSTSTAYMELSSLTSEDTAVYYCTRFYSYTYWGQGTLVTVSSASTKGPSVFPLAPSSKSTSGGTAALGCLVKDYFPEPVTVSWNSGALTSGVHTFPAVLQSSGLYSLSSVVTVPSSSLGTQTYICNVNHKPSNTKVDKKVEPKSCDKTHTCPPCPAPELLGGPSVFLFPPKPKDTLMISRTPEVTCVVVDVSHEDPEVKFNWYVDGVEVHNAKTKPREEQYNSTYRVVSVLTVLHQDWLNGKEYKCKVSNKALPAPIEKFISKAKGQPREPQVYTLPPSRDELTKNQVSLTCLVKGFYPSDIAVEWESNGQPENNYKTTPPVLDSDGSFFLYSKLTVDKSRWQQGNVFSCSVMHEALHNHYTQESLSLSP
light: B1 light
notes: Anti-glypican-3 IgG1 (G1d with K439E); the alteration stands in both H chains; EU numbering; also called T335_04F Ho Ab; T335F in both H chains
B25: GpH7-B3 variant T335_05P/GpL16-k0 (homodimerized antibody, Ho Ab) (antibody, human IgG1, kappa)
heavy: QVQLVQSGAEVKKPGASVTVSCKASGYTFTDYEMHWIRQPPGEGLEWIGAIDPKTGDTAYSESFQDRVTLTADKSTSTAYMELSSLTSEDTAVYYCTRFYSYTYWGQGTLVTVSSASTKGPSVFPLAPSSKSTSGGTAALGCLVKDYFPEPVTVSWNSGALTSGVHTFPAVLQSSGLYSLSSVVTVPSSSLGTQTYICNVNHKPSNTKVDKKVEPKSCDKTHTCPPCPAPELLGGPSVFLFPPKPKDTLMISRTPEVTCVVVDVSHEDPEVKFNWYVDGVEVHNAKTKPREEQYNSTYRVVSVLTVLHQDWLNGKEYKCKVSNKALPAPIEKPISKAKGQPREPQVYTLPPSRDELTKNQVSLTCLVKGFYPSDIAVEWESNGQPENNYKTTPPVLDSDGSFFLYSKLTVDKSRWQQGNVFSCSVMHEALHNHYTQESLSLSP
light: B1 light
notes: Anti-glypican-3 IgG1 (G1d with K439E); the alteration stands in both H chains; EU numbering; also called T335_05P Ho Ab; T335P in both H chains

These binders were tested against T1, FcγRIIa H (FcγRIIa, allotype with His at position 131), extracellular domain with C-terminal His tag (human, UniProt P12318 34-217) (assay: SPR (Biacore); He/Con_2aH divided by He/Con_2b (FcγRIIb)).
T1 construct: extracellular domain; also called FcgRIIa H; 2aH; not shown: His tag at the C terminus
T1 sequence (looked up): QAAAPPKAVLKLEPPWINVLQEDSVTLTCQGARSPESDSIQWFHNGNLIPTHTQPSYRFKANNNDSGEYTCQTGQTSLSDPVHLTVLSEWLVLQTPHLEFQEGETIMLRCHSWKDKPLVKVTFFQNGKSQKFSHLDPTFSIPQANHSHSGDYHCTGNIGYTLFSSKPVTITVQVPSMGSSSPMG

Binder | He_2aH/2b (IIaH/IIb) [ratio]
B1 | 0.23
B2 | 0.26
B3 | 0.55
B4 | 0.8
B5 | 0.22
B6 | 0.43
B7 | 0.22

Each binder was assayed against T1, FcγRIIa H (FcγRIIa, allotype with His …) (assay: SPR (Biacore), relative binding vs GpH7-A5/GpH7-B3/GpL16-k0).

Binder | He/Con_2aH
B1 | 33.4 % of HeCon Ab (=100)
B2 | 52 % of HeCon Ab (=100)
B3 | 52.5 % of HeCon Ab (=100)
B4 | 20.7 % of HeCon Ab (=100)
B5 | 38.1 % of HeCon Ab (=100)
B6 | 53.1 % of HeCon Ab (=100)
B7 | 48.2 % of HeCon Ab (=100)

These binders were tested against T2, FcγRIIb, extracellular domain with C-terminal His tag (human, UniProt P31994 43-217) in the same assay as above.
T2 construct: extracellular domain; also called FcgRIIb; 2b; not shown: His tag at the C terminus
T2 sequence (looked up): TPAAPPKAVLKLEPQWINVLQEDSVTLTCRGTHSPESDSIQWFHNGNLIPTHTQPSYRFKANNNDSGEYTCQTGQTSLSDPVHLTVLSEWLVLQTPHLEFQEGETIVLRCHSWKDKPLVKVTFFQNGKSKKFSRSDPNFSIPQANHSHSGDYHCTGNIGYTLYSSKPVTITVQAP

Binder | He/Con_2b
B1 | 143 % of HeCon Ab (=100)
B2 | 197 % of HeCon Ab (=100)
B3 | 95.9 % of HeCon Ab (=100)
B4 | 26 % of HeCon Ab (=100)
B5 | 171 % of HeCon Ab (=100)
B6 | 124 % of HeCon Ab (=100)
B7 | 217 % of HeCon Ab (=100)

Each binder was assayed against T3, FcγRIIa H (human FcγRIIa, allotype H131, extracellular domain with C-terminal His tag) (human, UniProt P12318 34-217) (assay: SPR (Biacore T100), antibody captured on antigen-peptide chip, FcγRIIa H as analyte; relative binding).
T3 construct: extracellular domain; Soluble extracellular domain expressed in FreeStyle293 cells; used as analyte in Biacore; also called FcgRIIa H; FcγRIIa type H; not shown: His tag attached to the C terminus
T3 sequence (looked up): T1 sequence (looked up)
Description: Analysis of interaction between objective antibody and the FcγR was carried out using Biacore T100 (GE Healthcare). HBS-EP+ (GE Healthcare) was used as the running buffer, and the measurement temperature was set to 25° C. Chips produced by immobilizing the antigen peptide by the amine coupling method to a Series S Sencor Chip CM5 (GE Healthcare), or alternatively, chips produced by allowing preliminarily biotinylated antigen peptides to interact with and immobilize onto a Series S Sensor Chip SA (certified) (GE Healthcare) were used. Antibodies of interest were captured onto an antigen peptide-immobilized chip, and allowed to interact to each FcγR diluted with running buffer. To regenerate and repeatedly use the chip, the antibodies captured on the chip were washed off by reacting 10 mM glycine-HCl, pH 1.5.

Binder | Ho/Con_2aH | He/Con_2aH
B8 | 103 relative binding activity (control homodimerized antibody GpH7-B3/GpL16-k0 = 100) | 
B9 |  | 101 relative binding activity (control heterodimerized antibody GpH7-A5/GpH7-B3/GpL16-k0 = 100)
B10 | 122 relative binding activity (control homodimerized antibody GpH7-B3/GpL16-k0 = 100) | 
B11 |  | 107 relative binding activity (control heterodimerized antibody GpH7-A5/GpH7-B3/GpL16-k0 = 100)
B12 |  | 105 relative binding activity (control heterodimerized antibody GpH7-A5/GpH7-B3/GpL16-k0 = 100)
B13 | 110 relative binding activity (control homodimerized antibody GpH7-B3/GpL16-k0 = 100) | 
B14 | 115 relative binding activity (control homodimerized antibody GpH7-B3/GpL16-k0 = 100) | 
B15 |  | 108 relative binding activity (control heterodimerized antibody GpH7-A5/GpH7-B3/GpL16-k0 = 100)
B16 | 106 relative binding activity (control homodimerized antibody GpH7-B3/GpL16-k0 = 100) | 
B17 |  | 103 relative binding activity (control heterodimerized antibody GpH7-A5/GpH7-B3/GpL16-k0 = 100)
B18 |  | 106 relative binding activity (control heterodimerized antibody GpH7-A5/GpH7-B3/GpL16-k0 = 100)
B19 |  | 108 relative binding activity (control heterodimerized antibody GpH7-A5/GpH7-B3/GpL16-k0 = 100)
B20 |  | 103 relative binding activity (control heterodimerized antibody GpH7-A5/GpH7-B3/GpL16-k0 = 100)
B21 | 106 relative binding activity (control homodimerized antibody GpH7-B3/GpL16-k0 = 100) | 
B22 | 106 relative binding activity (control homodimerized antibody GpH7-B3/GpL16-k0 = 100) | 
B23 |  | 108 relative binding activity (control heterodimerized antibody GpH7-A5/GpH7-B3/GpL16-k0 = 100)
B24 | 104 relative binding activity (control homodimerized antibody GpH7-B3/GpL16-k0 = 100) | 
B25 | 115 relative binding activity (control homodimerized antibody GpH7-B3/GpL16-k0 = 100) | 
